B1: glmS ribozyme (parent)
chain: AUAAAAGCGCCAGAACUACAGAAAUGUAGUUGACGAGGAGGAGGUUUAUCGAAUUUUCGGCGGAUGCCUCCAAA

± gives the standard error. This sample holds only a part of the variants without activity.

What all share (details): with glucosamine-6-phosphate
In series [1] the parent is B1. As to the kind of experiment: self-cleavage kobs at 640 uM GlcN6P; higher = faster cleavage; RNA array. In short, it runs like this: (§1)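 Glucosamine-6-phosphate in HEPES/KCl/Mg(OAc)2 buffer, at 40 μM to 10 mM, was flowed over barcoded ribozyme variants transcribed in situ by E. coli RNA polymerase on sequenced MiSeq chips. Tracking was through a hybridised Cy3 probe at 37 °C. kobs, kcat and KM came from exponential decay fits and weighted Michaelis–Menten fits of normalised per-tile medians.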

In series [2] the parent is B1. In words: self-cleavage kobs at 2500 uM GlcN6P; higher = faster cleavage; RNA array. The gist of the method:
as §1

Series [3] covers variants of B1. As to the kind of experiment: self-cleavage kobs at 10000 uM GlcN6P; higher = faster cleavage; RNA array. In short, it runs like this: as §1

For the variant U30C G32C C58A, the “self-cleavage kobs at 640 uM GlcN6P” value in series [1] came to 3.93e-05 ± 1.5e-05 s⁻¹.
As to A6C G13A G38A C58U, the “self-cleavage kobs at 640 uM GlcN6P” value in series [1] was under 1e-05 s⁻¹.
On the same count and under the same terms, to G13U U30C C61A belongs under 1e-05 s⁻¹.
For G13U G40U G63C, the “self-cleavage kobs at 640 uM GlcN6P” value in series [1] was under 1e-05 s⁻¹. Moreover, the “self-cleavage kobs at 2500 uM GlcN6P” value in series [2] is under 1e-05 s⁻¹.
As to G51U U55C, in series [1], the “self-cleavage kobs at 640 uM GlcN6P” value is under 1e-05 s⁻¹. For the same variant, the “self-cleavage kobs at 10000 uM GlcN6P” value in series [3] was under 1e-05 s⁻¹.
Turning to C10A A33G U45C G66A C70U, the “self-cleavage kobs at 640 uM GlcN6P” value in series [1] was under 1e-05 s⁻¹. The “self-cleavage kobs at 2500 uM GlcN6P” value in series [2] was under 1e-05 s⁻¹.
For A6C U45C G51C U65G C70G, the “self-cleavage kobs at 640 uM GlcN6P” value in series [1] is under 1e-05 s⁻¹. Also, the “self-cleavage kobs at 2500 uM GlcN6P” value in series [2] is under 1e-05 s⁻¹.
For the variant A15C U31C A33G G38A, the “self-cleavage kobs at 640 uM GlcN6P” value in series [1] was under 1e-05 s⁻¹. Moreover, the “self-cleavage kobs at 10000 uM GlcN6P” value in series [3] was under 1e-05 s⁻¹.
On to C10G C11A A39U, for which, in series [1], the “self-cleavage kobs at 640 uM GlcN6P” value was under 1e-05 s⁻¹. The “self-cleavage kobs at 2500 uM GlcN6P” value in series [2] was under 1e-05 s⁻¹.
In the case of U46C G60U, the “self-cleavage kobs at 640 uM GlcN6P” value in series [1] was under 1e-05 s⁻¹. Moreover, the “self-cleavage kobs at 2500 uM GlcN6P” value in series [2] was under 1e-05 s⁻¹.
Turning to G35C G38A U69G, in series [1], the “self-cleavage kobs at 640 uM GlcN6P” value is 0.00083 ± 0.00024 s⁻¹.
Regarding C8G C16G G38A, the “self-cleavage kobs at 640 uM GlcN6P” value in series [1] is under 1e-05 s⁻¹.
With A14U A48U G51A A52G, the “self-cleavage kobs at 640 uM GlcN6P” value in series [1] is under 1e-05 s⁻¹. The “self-cleavage kobs at 2500 uM GlcN6P” value in series [2] is under 1e-05 s⁻¹.
With A53G U54A G63U, the “self-cleavage kobs at 640 uM GlcN6P” value in series [1] is under 1e-05 s⁻¹. In series [2], the “self-cleavage kobs at 2500 uM GlcN6P” value was under 1e-05 s⁻¹.
On to C10A A39U A52G, for which the “self-cleavage kobs at 640 uM GlcN6P” value in series [1] is under 1e-05 s⁻¹. The “self-cleavage kobs at 2500 uM GlcN6P” value in series [2] is under 1e-05 s⁻¹. Further, the “self-cleavage kobs at 10000 uM GlcN6P” value in series [3] was under 1e-05 s⁻¹.
Take A6U A12G G59C C67A: the “self-cleavage kobs at 640 uM GlcN6P” value in series [1] is under 1e-05 s⁻¹.
Still for that read-out and setting: the figure for A6U A33C A39U C71U is under 1e-05 s⁻¹.
As for U30A U31C G32A, in series [1], the “self-cleavage kobs at 640 uM GlcN6P” value came out at 6.3e-05 ± 1.6e-05 s⁻¹. Further, in series [2], the “self-cleavage kobs at 2500 uM GlcN6P” value came to 0.000298 ± 5.8e-05 s⁻¹.
In the same order, the values of A52C A53U U55A U65A are under 1e-05 s⁻¹ and under 1e-05 s⁻¹.
As to G66C C68U C70U, in series [1], the “self-cleavage kobs at 640 uM GlcN6P” value was 0.000337 ± 9.2e-05 s⁻¹.
The same measure, in the same setting: to G37A U55C U56G belongs 0.000171 ± 5.1e-05 s⁻¹.
In the case of A52U A53G G59C, the “self-cleavage kobs at 640 uM GlcN6P” value in series [1] was under 1e-05 s⁻¹. In addition, in series [2], the “self-cleavage kobs at 2500 uM GlcN6P” value is under 1e-05 s⁻¹.
Take A6C C16G G32U A33G G38U: the “self-cleavage kobs at 640 uM GlcN6P” value in series [1] was under 1e-05 s⁻¹. The “self-cleavage kobs at 10000 uM GlcN6P” value in series [3] was under 1e-05 s⁻¹.
As to G9A G29A G63U, the “self-cleavage kobs at 640 uM GlcN6P” value in series [1] was under 1e-05 s⁻¹. Also, the “self-cleavage kobs at 2500 uM GlcN6P” value in series [2] was under 1e-05 s⁻¹.
In the case of A39U G43C G44A G51U, the “self-cleavage kobs at 640 uM GlcN6P” value in series [1] was under 1e-05 s⁻¹. In addition, the “self-cleavage kobs at 2500 uM GlcN6P” value in series [2] was under 1e-05 s⁻¹.
As for G32C G35U U46A C68G, in series [1], the “self-cleavage kobs at 640 uM GlcN6P” value is under 1e-05 s⁻¹.
In the case of C11G G13C A48G, the “self-cleavage kobs at 640 uM GlcN6P” value in series [1] is under 1e-05 s⁻¹. In series [2], the “self-cleavage kobs at 2500 uM GlcN6P” value is under 1e-05 s⁻¹.
Take U31G G62A: the “self-cleavage kobs at 640 uM GlcN6P” value in series [1] was under 1e-05 s⁻¹.
Consider C10U A36U G41A, for which the “self-cleavage kobs at 640 uM GlcN6P” value in series [1] was under 1e-05 s⁻¹. In series [2], the “self-cleavage kobs at 2500 uM GlcN6P” value is under 1e-05 s⁻¹.
As for A52C U57G U69G, the “self-cleavage kobs at 640 uM GlcN6P” value in series [1] came out at 8.06e-05 ± 2.8e-05 s⁻¹.
Same read-out and setting: the figure for A6C A42C C50A U54G G59C C61U is under 1e-05 s⁻¹.
On the same count and under the same terms, to U49A G66A belongs under 1e-05 s⁻¹; to G29U C34U, under 1e-05 s⁻¹; to A14C G35U C61A, under 1e-05 s⁻¹.
With C8G G9U C10G, the “self-cleavage kobs at 640 uM GlcN6P” value in series [1] was under 1e-05 s⁻¹.
Regarding A39U G41U U47A A52C, the “self-cleavage kobs at 640 uM GlcN6P” value in series [1] is under 1e-05 s⁻¹. The “self-cleavage kobs at 2500 uM GlcN6P” value in series [2] is under 1e-05 s⁻¹.
Take U46G G51U C71U: in series [1], the “self-cleavage kobs at 640 uM GlcN6P” value is under 1e-05 s⁻¹. Moreover, the “self-cleavage kobs at 2500 uM GlcN6P” value in series [2] was under 1e-05 s⁻¹.
Consider A6U G37U A48C C67G, for which, in series [1], the “self-cleavage kobs at 640 uM GlcN6P” value is under 1e-05 s⁻¹. In series [2], the “self-cleavage kobs at 2500 uM GlcN6P” value is under 1e-05 s⁻¹.
With U30G G32A C68U, the “self-cleavage kobs at 640 uM GlcN6P” value in series [1] stood at 7.55e-05 ± 3.7e-05 s⁻¹.
Same read-out and setting: the figure for G7U A39G U47C G59C is under 1e-05 s⁻¹.
The same measure, in the same setting: the figure for C34U A64U G66C is under 1e-05 s⁻¹.
As to G51U U56A G63U, the “self-cleavage kobs at 640 uM GlcN6P” value in series [1] was under 1e-05 s⁻¹. In addition, in series [2], the “self-cleavage kobs at 2500 uM GlcN6P” value is under 1e-05 s⁻¹.
Turning to G13C G32A U45A A52U G60A G62C A64G C68U, the “self-cleavage kobs at 640 uM GlcN6P” value in series [1] was under 1e-05 s⁻¹. Also, in series [2], the “self-cleavage kobs at 2500 uM GlcN6P” value was under 1e-05 s⁻¹.
Take C16U A33U U49A: in series [1], the “self-cleavage kobs at 640 uM GlcN6P” value was under 1e-05 s⁻¹. The “self-cleavage kobs at 2500 uM GlcN6P” value in series [2] was under 1e-05 s⁻¹.
For A6G C16A G35U A48U, in series [1], the “self-cleavage kobs at 640 uM GlcN6P” value was under 1e-05 s⁻¹. The “self-cleavage kobs at 2500 uM GlcN6P” value in series [2] is under 1e-05 s⁻¹.
As for G44A U46C C68A, the “self-cleavage kobs at 640 uM GlcN6P” value in series [1] is under 1e-05 s⁻¹. Moreover, the “self-cleavage kobs at 2500 uM GlcN6P” value in series [2] was under 1e-05 s⁻¹.
As for A64C C68A C70G, the “self-cleavage kobs at 640 uM GlcN6P” value in series [1] is under 1e-05 s⁻¹. For the same variant, the “self-cleavage kobs at 2500 uM GlcN6P” value in series [2] is under 1e-05 s⁻¹.
Take G40U G44U C68U: the “self-cleavage kobs at 640 uM GlcN6P” value in series [1] was under 1e-05 s⁻¹.
On to G13U A64G U65G, for which the “self-cleavage kobs at 640 uM GlcN6P” value in series [1] worked out at 8.37e-05 ± 3e-05 s⁻¹. Moreover, in series [2], the “self-cleavage kobs at 2500 uM GlcN6P” value was 5.07e-05 ± 1.7e-05 s⁻¹.
A15G C34A A64C: the “self-cleavage kobs at 640 uM GlcN6P” value in series [1] is under 1e-05 s⁻¹.
For the variant C50U U56G C70G, in series [1], the “self-cleavage kobs at 640 uM GlcN6P” value was 0.000278 ± 8e-05 s⁻¹. Further, in series [2], the “self-cleavage kobs at 2500 uM GlcN6P” value amounted to 0.000251 ± 5.8e-05 s⁻¹.
A15G U49G U65G C70A: the “self-cleavage kobs at 640 uM GlcN6P” value in series [1] was found to be 0.00349 ± 0.0014 s⁻¹.
Still for that read-out and setting: to A12C G41A A48C belongs under 1e-05 s⁻¹; to G9C A64U, under 1e-05 s⁻¹.
For the variant G37A C61A C70U, the “self-cleavage kobs at 640 uM GlcN6P” value in series [1] is under 1e-05 s⁻¹. In series [2], the “self-cleavage kobs at 2500 uM GlcN6P” value is under 1e-05 s⁻¹. Besides, the “self-cleavage kobs at 10000 uM GlcN6P” value in series [3] is under 1e-05 s⁻¹.
With G41A U65G, the “self-cleavage kobs at 640 uM GlcN6P” value in series [1] was under 1e-05 s⁻¹.
Same read-out and setting: the figure for U45C C50A U56C is under 1e-05 s⁻¹.
For the variant A33U G43A A48U C61U C70U, the “self-cleavage kobs at 640 uM GlcN6P” value in series [1] is under 1e-05 s⁻¹. For the same variant, the “self-cleavage kobs at 2500 uM GlcN6P” value in series [2] was under 1e-05 s⁻¹.
U30C G32U C34G G51U: the “self-cleavage kobs at 640 uM GlcN6P” value in series [1] was under 1e-05 s⁻¹. Also, the “self-cleavage kobs at 2500 uM GlcN6P” value in series [2] is under 1e-05 s⁻¹.
On to C16A U56G C58G G62C, for which the “self-cleavage kobs at 640 uM GlcN6P” value in series [1] was under 1e-05 s⁻¹.
On the same count and under the same terms, the figure for A6U C10U G32C is under 1e-05 s⁻¹.
In the case of G40U U55A C71A, the “self-cleavage kobs at 640 uM GlcN6P” value in series [1] is 0.00279 ± 0.00086 s⁻¹. Moreover, the “self-cleavage kobs at 10000 uM GlcN6P” value in series [3] is 0.0227 ± 0.0049 s⁻¹.
With A6C A53U C58U, in series [1], the “self-cleavage kobs at 640 uM GlcN6P” value was under 1e-05 s⁻¹. In series [2], the “self-cleavage kobs at 2500 uM GlcN6P” value is under 1e-05 s⁻¹.
In the case of A14C G43U U56A C68U, the “self-cleavage kobs at 640 uM GlcN6P” value in series [1] worked out at 9.14e-05 ± 2.6e-05 s⁻¹. Further, in series [2], the “self-cleavage kobs at 2500 uM GlcN6P” value turned out to be 0.000133 ± 3.7e-05 s⁻¹.
A39C G40U G44A U55C U65G: in series [1], the “self-cleavage kobs at 640 uM GlcN6P” value was under 1e-05 s⁻¹. Moreover, the “self-cleavage kobs at 2500 uM GlcN6P” value in series [2] is under 1e-05 s⁻¹.
Regarding G13A U45A U49A, the “self-cleavage kobs at 640 uM GlcN6P” value in series [1] was under 1e-05 s⁻¹. Moreover, in series [2], the “self-cleavage kobs at 2500 uM GlcN6P” value was under 1e-05 s⁻¹.

(Values after the supplement of paper PMC7125110.)
